According to PMC11897370 (Scientific Reports, 2025):
Where a chain is given by its changes, count along the chain named. Names may count otherwise.

B1: Wild type (Wt) peroxiredoxin 6 (Prdx6), recombinant rat (enzyme)
chain: MPGGLLLGDEAPNFEANTTIGHIRFHDFLGDSWGILFSHPRDFTPVCTTELGRAAKLAPEFAKRNVKLIALSIDSVEDHFAWSKDINAYNGAAPTEKLPFPIIDDKDRDLAILLGMLDPAEKDEKGMPVTARVVFIFGPDKKLKLSILYPATTGRNFDEILRVVDSLQLTASNPVATPVDWKKGESVMVLPTLPEEEAKQLFPKGVFTKELPSGKKYLRYTPQP
B2: D42A mutant of rat Prdx6 (enzyme)
chain: B1 chain with D42A
B3: H79A mutant of rat Prdx6 (enzyme)
chain: B1 chain with H79A

Target: the molecule itself
Test: dynamic light scattering

| Protein | stoichiometry N |
| --- | --- |
| B1 | 2 |
| B2 | 2 |
| B3 | 2 |
